Measured values reported in the supplement of paper PMC10567573.
± gives the standard deviation.

Assay: protein stability index of a GFP-peptide fusion (GPS, HEK-293T) (PSI 1-6); higher = more stable
[1] = treatment: DMSO, c terminus: a fixed tail appended
[2] = treatment: MLN4924 1 uM, 8 h, c terminus: a fixed tail appended
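Further: 24-mer peptide tiles fused after GFP, lentivirally expressed, FACS-sorted into six equal bins by GFP/DsRed ratio, decoded by Illumina sequencing, PSI is the read-weighted mean bin number.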

Sequence | protein stability index [1] | protein stability index [2] | protein stability index (treatment: DMSO, c terminus: native) | protein stability index (treatment: MLN4924 1 uM, 8 h, c terminus: native)
MLKAEETCAPSVSYFKCVQKEVLP [CCND1] | 3.52 ± 0.12 | 3.55 ± 0.24 | – | –
MLLELTRRGQEPLSALLQFGVTYL [BCL2L13] | 2.63 ± 0.59 | 2.4 ± 0.41 | – | –
MLQIPQEKSQAYPRRRRPGCYAYR [MYORG] | 3.22 ± 0.43 | 3.23 ± 0.23 | – | –
MMNQSMMGMNMNIGMSAAGMGLTG [CLINT1] | 2.46 ± 0.39 | 2.53 ± 0.3 | – | –
MNMLWSRMLKDNKKNWRRVYKSLL [CLINT1] | 2.62 ± 0.74 | 2.58 ± 0.61 | – | –
MNSLLIGELSPEQPSFEPTKNKEL [FADS1] | 4.26 ± 0.091 | 4.8 ± 0.21 | – | –
MNVMLKSSPVDLVTATDQKVEKML [IMPA1] | 3.832 ± 0.018 | 3.96 ± 0.49 | – | –
MQPSKPQQPSLNTMIQQQNMQQPM [CLINT1] | 4.1 ± 0.13 | 4.34 ± 0.46 | – | –
MRFASGRPAFVRVRRGHSHLAPSE | 3.08 ± 0.22 | 3.29 ± 0.4 | – | –
MRQDLEEERVALNTEIEKLGRSIV [PKD2L1] | 4.29 ± 0.13 | 4.38 ± 0.23 | – | –
MSWRGRSTYYWPRPRRYVQPPEMI [GAGE1] | 2.64 ± 0.43 | 2.55 ± 0.24 | – | –
MTTSHQPQDRYKAVWLIFFMLGLG [SLC29A1] | 2.52 ± 0.61 | 2.41 ± 0.43 | – | –
MVGQKDSVILSVKFSPFGQWWASV [TLE6] | 2.95 ± 0.35 | 2.89 ± 0.35 | – | –
MVVDFWTWEQTFQELIQEAKPRAT [RTP4] | 2.5 ± 0.49 | 2.2 ± 0.36 | – | –
MYGVDLHHAKDSEGVEIMLGVCAS [EPB41L3] | 2.71 ± 0.3 | 2.77 ± 0.51 | – | –
MYHPRELYPSLGAGYRLGPAQPGA [TBX6] | 2.78 ± 0.25 | 2.71 ± 0.11 | – | –
NATAPRSPSHSPEHRRTARRTPPG [ELOA2] | 5 ± 0.15 | 5.2 ± 0.36 | – | –
NCPAHWLAQDWERCNTTCGRGVKK [ADAMTSL2] | 4.16 ± 0.19 | 4.42 ± 0.16 | – | –
NDIRIFLEKVLEENAQKKRFNQVL [VPS39] | 2.1 ± 0.24 | 2.27 ± 0.29 | – | –
NEKQLHTLRTCYAANPRPDALMKE [ISL2] | 4.05 ± 0.43 | 4.15 ± 0.53 | – | –
NFLACLASFCVETNNGAGFGLSIL [SCAMP3] | 3.02 ± 0.55 | 2.99 ± 0.41 | – | –
NFLTQRENTIAGANHTHTFYGHSH [C10orf62] | 3.1 ± 0.26 | 3.09 ± 0.2 | – | –

Sequence | protein stability index [1] | protein stability index [2] | protein stability index (treatment: DMSO, c terminus: native) | protein stability index (treatment: MLN4924 1 uM, 8 h, c terminus: native)
NFQNIPKETELPFPKQILDQNNVI [MIA2] | 3.54 ± 0.34 | 3.45 ± 0.24 | – | –
NFSLATNTKYSVYIYVYFHTKLTS [R3HDM1] | 2.6 ± 0.41 | 2.36 ± 0.9 | – | –
NHIGMGVRYNAEKKKVGNYYTTPI [YJU2B] | 3.03 ± 0.22 | 3.27 ± 0.18 | – | –
NIGKSHQGLKLYAVEISDHPGEHE [CPXM2] | 4.24 ± 0.13 | 4.07 ± 0.41 | – | –
NIMPYESTRVCLQPIRGVEGSDYI [PTPRD] | 2.91 ± 0.084 | 3.09 ± 0.18 | – | –
NKVAGHPLAQNERCLHMFLQDEII [SNX3] | 2.64 ± 0.2 | 2.7 ± 0.46 | – | –
NNHESLDEELHLLIISCRKLFYFK [FBXO39] | 2.25 ± 0.32 | 2.12 ± 0.16 | – | –
NPKLPNISLDVLQPSFPEILLESH [POMT2] | 3.52 ± 0.21 | 3.84 ± 0.34 | – | –
NPNFEVAESDYSNNIMKCRSRYDG [LOXL2] | 4.42 ± 0.24 | 4.42 ± 0.33 | – | –
NQNLSNRPSFNRTPIPWLSSGEPV [MYOZ1] | 3.43 ± 0.38 | 3.5 ± 0.15 | – | –
NQPSGLIRTYLGRSPLVSGDESSL [RHOBTB3] | 3.85 ± 0.25 | 3.84 ± 0.3 | – | –
NRASLYSFPEPEAAQPMTKKRKVD [PRAME] | 4.54 ± 0.27 | 4.74 ± 0.14 | – | –
NREHLVMMEKILGPIPSHMIHRTR [CLK3] | 2.79 ± 0.34 | 2.89 ± 0.33 | – | –
NRGINITIYGKTFRVVDCDQFTQV [EFHC1] | 2.24 ± 0.53 | 2.72 ± 0.51 | – | –
NSPSSPSSSAASSSSPSSSSAVV [RHOBTB2] | – | – | 5.31 ± 0.12 | 5.456 ± 0.023
NTPMEETVRAMTHVINQGMAMYWG [KCNAB2] | 2.92 ± 0.39 | 3.13 ± 0.96 | – | –
NVEMDAAPGVDLSRILNEMRDQYE [KRT16] | 4.34 ± 0.18 | 4.46 ± 0.37 | – | –
NVKYLKKILDELEKVLDQVETELQ [GDAP1] | 4.25 ± 0.077 | 4.23 ± 0.14 | – | –
NYRIAGARLMRSNYPPPLSSAALR [C6orf223] | 3.16 ± 0.41 | 3.2 ± 0.3 | – | –
PAAGRELPPDMTVVPGDHLLEPEV [KCNA3] | 5.3 ± 0.15 | 5.31 ± 0.08 | – | –
PADGWKGERPRSEEDNELNLPNLA [GCH1] | 5.33 ± 0.34 | 5.36 ± 0.35 | – | –
PALDIFGDLFESTPEVAAAPKPDA [SNAP91] | 4.57 ± 0.21 | 4.67 ± 0.27 | – | –

Sequence | protein stability index [1] | protein stability index [2] | protein stability index (treatment: DMSO, c terminus: native) | protein stability index (treatment: MLN4924 1 uM, 8 h, c terminus: native)
PASFPTWGCDLGVVTRVVTGVYPR [BRF1] | 2.37 ± 0.16 | 2.39 ± 0.3 | – | –
PDGGGPWLEDEPGRGAQGENERVR [ZSWIM9] | 5.41 ± 0.43 | 5.5 ± 0.3 | – | –
PDRVYIHPDSPATGAHWMRQPVSF [TBX6] | 2.45 ± 0.22 | 2.54 ± 0.098 | – | –
PDVTRVGLLQYGSTVKNEFSLKTF [MATN2] | 2.94 ± 0.23 | 2.85 ± 0.44 | – | –
PEENYPSLQMSSAEMPHTETVSPL [NANOGP8] | 5.25 ± 0.12 | 5.28 ± 0.18 | – | –
PEGQKVLFVTFLLIYMVTIMGNLL [OR4A15] | 3.06 ± 0.36 | 3.24 ± 0.5 | – | –
PELNNNQYNRSSNSNGGNLNSPPG [CDC14A] | 4.98 ± 0.15 | 4.84 ± 0.27 | – | –
PGPMDWVPRYTGVAPQDQCKLTCQ [ADAMTS4] | 3.77 ± 0.35 | 4.14 ± 0.36 | – | –
PHIEEQQKKIESYLHNHFIGEGMT [TENT5D] | 3.35 ± 0.33 | 3.59 ± 0.27 | – | –
PILKRKLPGSDVSGRLMGSPPVPG [FBXO28] | 3.9 ± 0.3 | 4 ± 0.1 | – | –
PKNREYDRFYVINYLVRLSFHNLK [ZNF277] | 3.03 ± 1.2 | 2.29 ± 0.31 | – | –
PLGTQVAVNAHQWLDNPERWNKVK [SEPHS2] | 3.65 ± 0.084 | 3.61 ± 0.26 | – | –
PLIIAARNGHAKVVRLLLEHYRVQ [FEM1B] | 2.36 ± 0.36 | 2.39 ± 0.2 | – | –
PLPEAIDPDVGVNSLQSYQLSPNK [PCDHGA10] | 5.35 ± 0.26 | 5.25 ± 0.24 | – | –
PLPKRVAKVPRPPSTLLPTPEEQG [FOXJ1] | 4.97 ± 0.29 | 4.82 ± 0.34 | – | –
PLPTDPMLGLALGGLVVSAASLAG [TSPAN10] | 2.96 ± 0.63 | 2.65 ± 0.63 | – | –
PLPVSADDTPEVLNRALSNLSSRW [CDS2] | 3.82 ± 0.17 | 3.83 ± 0.19 | – | –
PLQGTDEDAVASADFSSMLSEEEK [TPD52L1] | 5.48 ± 0.58 | 5.69 ± 0.094 | – | –
PLRERARKLSQGILIIRFEMPYNI [YJU2B] | 2.9 ± 0.7 | 2.62 ± 0.39 | – | –
PLTFDKNENMAAKKKSVAMHTNYL [GNB5] | 3.33 ± 0.26 | 3.46 ± 0.26 | – | –
PMAEYNMPQYILREFKVTDARDGQ [PTPRD] | 3.8 ± 0.24 | 3.75 ± 0.27 | – | –
